The test system of data set [1] is HeLa Kyoto. The experiment in a line: solubility change mitosis vs G1/S (difference of NP-40 vs SDS log2 ratios) (log2 ratio difference); higher = more soluble in mitosis.
For data set [2], the system named is HeLa Kyoto. Briefly: solubility in G1/S (NP-40 vs SDS abundance) (log2 ratio); higher = more soluble. Conditions: cell cycle stage: G1/S.
The subject of data set [3] is HeLa Kyoto. Briefly: thermal stability score vs G1/S (z-score of summed log2 fold changes over temperatures); higher = more thermally stable than in G1/S.
In data set [4] the test system is HeLa Kyoto. Briefly: melting temperature (median over replicates), in situ; higher = more thermally stable.
Where [5] appears, read: cell cycle stage: early G1 (4.5 h after nocodazole release).

The record followed here is the supplement of paper PMC5998384.
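Throughout, for melting temperature (median over replicates), in situ: HeLa Kyoto cells synchronized by double thymidine or nocodazole block, proteins quantified by TMT10plex mass spectrometry, three independent biological replicates.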
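Throughout, for solubility change mitosis vs G1/S (difference of NP-40 vs SDS log2 ratios): synchronized HeLa Kyoto cells (double thymidine block for G1/S, nocodazole release for mitosis), protein amounts in NP-40 versus SDS lysates quantified by mass spectrometry, three biological replicates.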
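Throughout, for solubility in G1/S (NP-40 vs SDS abundance): HeLa Kyoto cells arrested at G1/S by double thymidine block, proteins quantified by TMT10plex mass spectrometry in mild NP-40 versus SDS extracts, three biological replicates.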
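Throughout, for thermal stability score vs G1/S (z-score of summed log2 fold changes over temperatures): synchronized HeLa Kyoto cells, proteins quantified by TMT10plex mass spectrometry, three biological replicates, mitosis taken 0.5 h after nocodazole release, G1/S directly after double thymidine block.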

Regarding “MAATAAAVVAEEDTELRDLLVQTLENSGVLNRIKAELRAAVFLALEEQEKVENKTPLVNESLKKFLNTKDGRLVASLVAEFLQFFNLDFTLAVFQPETSTLQGLEGRENLARDLGIIEAEGTVGGPLLLEVIRRCQQKEKGPTTGEGALDLSDVHSPPKSPEGKTSAQTTPSKIPRYKGQGKKKTSGQKAGDKKANDEANQSDTSVSLSEPKSKSSLHLLSHETKIGSFLSNRTLDGKDKAGLCPDEDDMEGDSFFDDPIPKPEKTYGLRKEPRKQAGSLASLSDAPPLKSGLSSLAGAPSLKDSESKRGNTVLKDLKLISDKIGSLGLGTGEDDDYVDDFNSTSHRSEKSEISIGEEIEEDLSVEIDDINTSDKLDDLTQDLTVSQLSDVADYLEDVA [FGFR1OP]”, the “solubility change mitosis (log2)” value in the data set on HeLa Kyoto [1] was -0.0261. The “solubility in G1/S (log2)” value in the data set with HeLa Kyoto [2] stood at 0.156. Further, the thermal stability score in the data set on HeLa Kyoto [3] (setting [5]) was -0.228; in the data set on HeLa Kyoto [3] (cell cycle stage: mitosis), -0.703. The melting temperature worked out at 52 °C in the data set with HeLa Kyoto [4] (cell cycle stage: G1/S) and 52.4 °C in the data set with HeLa Kyoto [4] (cell cycle stage: mitosis).

On to “MAATAAEAVASGSGEPREEAGALGPAWDESQLRSYSFPTRPIPRLSQSDPRAEELIENEEPVVLTDTNLVYPALKWDLEYLQENIGNGDFSVYSASTHKFLYYDEKKMANFQNFKPRSNREEMKFHEFVEKLQDIQQRGGEERLYLQQTLNDTVGRKIVMDFLGFNWNWINKQQGKRGWGQLTSNLLLIGMEGNVTPAHYDEQQNFFAQIKGYKRCILFPPDQFECLYPYPVHHPCDRQSQVDFDNPDYERFPNFQNVVGYETVVGPGDVLYIPMYWWHHIESLLNGGITITVNFWYKGAPTPKRIEYPLKAHQKVAIMRNIEKMLGEALGNPQEVGPLLNTMIKGRYN [HIF1AN]”, for which the “solubility change mitosis (log2)” value in the data set with HeLa Kyoto [1] is -0.0585. Besides, the “solubility in G1/S (log2)” value with HeLa Kyoto [2] was determined as 0.273. The values for the thermal stability score in the data set on HeLa Kyoto [3] (setting [5]) and with HeLa Kyoto [3] (cell cycle stage: mitosis) were 0.637 and 1.68, respectively. In addition, the values for the melting temperature in the data set on HeLa Kyoto [4] (cell cycle stage: G1/S) and in the data set with HeLa Kyoto [4] (cell cycle stage: mitosis) were 52.3 °C and 51.7 °C, respectively.

With “MAATALLEAGLARVLFYPTLLYTLFRGKVPGRAHRDWYHRIDPTVLLGALPLRSLTRQLVQDENVRGVITMNEEYETRFLCNSSQEWKRLGVEQLRLSTVDMTGIPTLDNLQKGVQFALKYQSLGQCVYVHCKAGRSRSATMVAAYLIQVHKWSPEEAVRAIAKIRSYIHIRPGQLDVLKEFHKQITARATKDGTFVISKT [PTPMT1]”, in the data set on HeLa Kyoto [1], the “solubility change mitosis (log2)” value was -0.0676. The “solubility in G1/S (log2)” value in the data set on HeLa Kyoto [2] is -0.268. For the same sequence, the thermal stability score in the data set on HeLa Kyoto [3] (setting [5]) was -0.395; in the data set on HeLa Kyoto [3] (cell cycle stage: mitosis) it was -0.764. Also, the melting temperature in the data set with HeLa Kyoto [4] (cell cycle stage: G1/S) was 51.8 °C; in the data set on HeLa Kyoto [4] (cell cycle stage: mitosis), 51.2 °C.

For “MAATKRKRRGGFAVQAKKPKRNEIDAEPPAKRHATAEEVEEEERDRIPGPVCKGKWKNKERILIFSSRGINFRTRHLMQDLRMLMPHSKADTKMDRKDKLFVINEVCEMKNCNKCIYFEAKKKQDLYMWLSNSPHGPSAKFLVQNIHTLAELKMTGNCLKGSRPLLSFDPAFDELPHYALLKELLIQIFSTPRYHPKSQPFVDHVFTFTILDNRIWFRNFQIIEEDAALVEIGPRFVLNLIKIFQGSFGGPTLYENPHYQSPNMHRRVIRSITAAKYREKQQVKDVQKLRKKEPKTLLPHDPTADVFVTPAEEKPIEIQWVKPEPKVDLKARKKRIYKRQRKMKQRMDSGKTK [BRIX1]”, in the data set on HeLa Kyoto [1], the “solubility change mitosis (log2)” value was 1.19. Further, the “solubility in G1/S (log2)” value in the data set on HeLa Kyoto [2] was -2.07. The thermal stability score in the data set with HeLa Kyoto [3] (setting [5]) is 0.649; with HeLa Kyoto [3] (cell cycle stage: mitosis) it was -2.33. Further, the melting temperature in the data set with HeLa Kyoto [4] (cell cycle stage: G1/S) was 53.8 °C; with HeLa Kyoto [4] (cell cycle stage: mitosis), 52.9 °C.

As to “MAATLKSLKLVRYRAFCSPSAFGAVRSVSYWNVSSTQHGGQDPPEHISLCHSAKKVKNICSTFSSRRILTTSSAHPGLEFSKTSSSKASTLQLGSPRATGVDEEDVEVFDSFENMRVFLQLRPEYRVHSYNASETSQLLSVSEGELILHKVRVNQNNLQAQVIVDYLCKLSSLPAEQHPVLLGSTSFALLCQLSVKKIQLFDTQDLINVLKAFVILGIPHSHSMLDVYETKCCHQVWEMNMDQLLLVADLWRYLGRKVPRFLNIFSSYLNLHWKDLSLSQLVHLIYVIGENRQVSQDLMQKLESLILKYIDLINLEEVGTICLGFFKSSTNLSEFVMRKIGDLACANIQHLSSRSLVNIVKMFRFTHVDHINFMKQIGEIAPQRIPSLGVQGVMHLTLYCSALRFLNEGVMNAVAASLPPRVAHCRSKDVAKILWSFGTLNYKPPNAEEFYSSLISEIHRKMPEFNQYPEHLPTCLLGLAFLEYFPVELIDFALSPGFVRLAQERTKFDLLKELYTLDGTVGIECPDYRGNRLSTHLQQEGSELLWYLAEKDMNSKPEFLETVFLLETMLGGPQYVKHHMILPHTRSSDLEVQLDVNLKPLPFNREATPAENVAKLRLEHVGVSLTDDLMNKLLKGKARGHFQGKTESEPGQQPMELENKAAVPLGGFLCNVADKSGAMEMAGLCPAACMQTPRMKLAVQFTNRNQYCYGSRDLLGLHNMKRRQLARLGYRVVELSYWEWLPLLKRTRLEKLAFLHEKVFTSAL [FASTKD5]”, the “solubility change mitosis (log2)” value in the data set with HeLa Kyoto [1] is -0.0689. Further, in the data set with HeLa Kyoto [2], the “solubility in G1/S (log2)” value was -0.184. The results for the thermal stability score in the data set with HeLa Kyoto [3] (setting [5]) and in the data set on HeLa Kyoto [3] (cell cycle stage: mitosis) were 0.139 and 1.05, respectively. For the same sequence, the melting temperature is 49.5 °C with HeLa Kyoto [4] (cell cycle stage: G1/S) and 49.8 °C with HeLa Kyoto [4] (cell cycle stage: mitosis).

With “MAAVDLEKLRASGAGKAIGVLTSGGDAQGMNAAVRAVTRMGIYVGAKVFLIYEGYEGLVEGGENIKQANWLSVSNIIQLGGTIIGSARCKAFTTREGRRAAAYNLVQHGITNLCVIGGDGSLTGANIFRSEWGSLLEELVAEGKISETTARTYSHLNIAGLVGSIDNDFCGTDMTIGTDSALHRIMEVIDAITTTAQSHQRTFVLEVMGRHCGYLALVSALASGADWLFIPEAPPEDGWENFMCERLGETRSRGSRLNIIIIAEGAIDRNGKPISSSYVKDLVVQRLGFDTRVTVLGHVQRGGTPSAFDRILSSKMGMEAVMALLEATPDTPACVVTLSGNQSVRLPLMECVQMTKEVQKAMDDKRFDEATQLRGGSFENNWNIYKLLAHQKPPKEKSNFSLAILNVGAPAAGMNAAVRSAVRTGISHGHTVYVVHDGFEGLAKGQVQEVGWHDVAGWLGRGGSMLGTKRTLPKGQLESIVENIRIYGIHALLVVGGFEAYEGVLQLVEARGRYEELCIVMCVIPATISNNVPGTDFSLGSDTAVNAAMESCDRIKQSASGTKRRVFIVETMGGYCGYLATVTGIAVGADAAYVFEDPFNIHDLKVNVEHMTEKMKTDIQRGLVLRNEKCHDYYTTEFLYNLYSSEGKGVFDCRTNVLGHLQQGGAPTPFDRNYGTKLGVKAMLWLSEKLREVYRKGRVFANAPDSACVIGLKKKAVAFSPVTELKKDTDFEHRMPREQWWLSLRLMLKMLAQYRISMAAYVSGELEHVTRRTLSMDKGF [PFKL]”, the “solubility change mitosis (log2)” value with HeLa Kyoto [1] was -0.179. For the same sequence, in the data set with HeLa Kyoto [2], the “solubility in G1/S (log2)” value was -0.0607. Moreover, the thermal stability score in the data set on HeLa Kyoto [3] (setting [5]) is -1.97; in the data set on HeLa Kyoto [3] (cell cycle stage: mitosis) it was -2.04. Also, the melting temperature came out at 58.6 °C with HeLa Kyoto [4] (cell cycle stage: G1/S) and 58.1 °C with HeLa Kyoto [4] (cell cycle stage: mitosis).

With “MAAVLKPVLLGLRDAPVHGSPTGPGAWTASKLGGIPDALPTVAAPRPVCQRCGQPLALVVQVYCPLEGSPFHRLLHVFACACPGCSTGGARSWKVFRSQCLQVPEREAQDAQKQGNSLAAEDWCEGADDWGSDTEEGPSPQFTLDFGNDASSAKDVDWTARLQDLRLQDAVLGAAHPVPPGLPLFLPYYICVADEDDYRDFVNLDHAHSLLRDYQQREGIAMDQLLSQSLPNDGDEKYEKTIIKSGDQTFYKFMKRIAACQEQILRYSWSGEPLFLTCPTSEVTELPACSQCGGQRIFEFQLMPALVSMLKSANLGLSVEFGTILVYTCEKSCWPPNHQTPMEEFCIIQEDPDELLFK [PDCD2L]”, the “solubility change mitosis (log2)” value in the data set with HeLa Kyoto [1] came to 0.0741. Also, the “solubility in G1/S (log2)” value in the data set on HeLa Kyoto [2] came out at 0.287. Also, the thermal stability score is 0.0844 in the data set on HeLa Kyoto [3] (setting [5]) and 0.849 with HeLa Kyoto [3] (cell cycle stage: mitosis). Besides, the melting temperature in the data set with HeLa Kyoto [4] (cell cycle stage: G1/S) was 48.9 °C; in the data set with HeLa Kyoto [4] (cell cycle stage: mitosis), 49.8 °C.

Regarding “MAAVQVVGSWPSVQPREAPREAIPERGNGFRLLSARLCALRPDDSSSARTEIHLLFDQLISENYSEGSGVAPEDVSALLVQACRLVPLNQNHLVSKVSQLIHHLLNRLQVIVDEQHLDFLLAYTISAIHQCSSWTHREILQALAALVYCNGSKCQKYLPELLGNTGLLMKLSDLAQSDPEVRRAAVHCMANLCLSVPGQPYLEEPYQNVCFQAFLTILQSPKSSDMDDITFCMLLQNALKGIQSLLNGGRMKLTQTDELGALLAVLKKFMFHGLPGLNIEMPTVLYPTPLPQYDGRTPIKPQQSESSASRPTLNKKKKSKVKPKKIQQGEEEEKESSGEIEAAPVTGTGRVNLHEGNTWCPSSLGVQSLPLDGSGAAEKDGVSSSFSSSSWKRVSSSESDFSDAEGGMQSKMRSYQAKVRQGALVCFLSTIKSIEKKVLYGYWSAFIPDTPELGSPQSVSLMTLTLKDPSPKTRACALQVLSAILEGSKQFLSVAEDTSDHRRAFTPFSVMIACSIRELHRCLLLALVAESSSQTVTQIIKCLANLVSNAPYDRLKLSLLTKVWNQIKPYIRHKDVNVRVSSLTLLGAIVSTHAPLPEVQLLLQQPCSSGLGNSNSATPHLSPPDWWKKAPAGPSLEETSVSSPKGSSEPCWLIRLCISIVVLPKEDSCSGSDAGSAAGSTYEPSPMRLEALQVLTLLARGYFSMTQAYLMELGEVICKCMGEADPSIQLHGAKLLEELGTGLIQQYKPDSTAAPDQRAPVFLVVMFWTMMLNGPLPRALQNSEHPTLQASACDALSSILPEAFSNLPNDRQMLCITVLLGLNDSKNRLVKAATSRALGVYVLFPCLRQDVIFVADAANAILMSLEDKSLNVRAKAAWSLGNLTDTLIVNMETPDPSFQEEFSGLLLLKMLRSAIEASKDKDKVKSNAVRALGNLLHFLQPSHIEKPTFAEIIEESIQALISTVLTEAAMKVRWNACYAMGNVFKNPALPLGTAPWTSQAYNALTSVVTSCKNFKVRIRSAAALSVPGKREQYGSVDQYARIWNALVTALQKSEDTIDFLEFKYCVSLRTQICQALIHLLSLASASDLPCMKETLELSGNMVQSYILQFLKSGAEGDDTGAPHSPQERDQMVRMALKHMGSIQAPTGDTARRAIMGFLEEILAVCFDSSGSQGALPGLTNQ [HEATR6]”, the “solubility change mitosis (log2)” value with HeLa Kyoto [1] was -0.216. Further, in the data set on HeLa Kyoto [2], the “solubility in G1/S (log2)” value was found to be 0.0502. Besides, the thermal stability score in the data set with HeLa Kyoto [3] (setting [5]) is -0.697; with HeLa Kyoto [3] (cell cycle stage: mitosis) it was 0.141. Further, the figures for the melting temperature in the data set on HeLa Kyoto [4] (cell cycle stage: G1/S) and in the data set on HeLa Kyoto [4] (cell cycle stage: mitosis) were 50.5 °C and 50.1 °C, respectively.
